Data from article PMC4521985.

Experiments:
IFP1.4 = IFP1.4 (UniProt Q9RZA4); assay: AUC
IFP2.0 = IFP2.0 (UniProt Q9RZA4); assay: AUC

## IFP1.4 (from UniProt Q9RZA4 1-321)
IFP1.4
  Kd: 7.8 µM
  stoichiometry N: 2

## IFP2.0 (from UniProt Q9RZA4 1-321)
IFP2.0
  Kd: 3.7 µM
  stoichiometry N: 2
